The results in this text go back to patent EP4413995A1 (Université de Franche-Comté, dated 2024).

Some results are limits rather than exact numbers.

Assay [1] has as its target T1, CD123 (recombinant, soluble, analyte of the Octet assay) (human, UniProt P26951 19-305).
T1 chain: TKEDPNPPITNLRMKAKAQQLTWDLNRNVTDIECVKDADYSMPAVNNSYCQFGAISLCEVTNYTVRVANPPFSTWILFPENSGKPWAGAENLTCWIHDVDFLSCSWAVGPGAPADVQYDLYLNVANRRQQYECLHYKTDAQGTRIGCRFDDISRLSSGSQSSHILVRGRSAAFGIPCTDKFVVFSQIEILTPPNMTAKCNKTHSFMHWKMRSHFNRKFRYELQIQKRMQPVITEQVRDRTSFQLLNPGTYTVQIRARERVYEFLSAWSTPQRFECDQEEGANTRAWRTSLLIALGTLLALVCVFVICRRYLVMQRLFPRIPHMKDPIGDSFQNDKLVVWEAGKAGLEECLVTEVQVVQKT
As to the kind of experiment: BLI (Octet, ForteBio), antibody immobilized on streptavidin biosensors, CD123 in solution (row of 50 nM). On the technique in general: In BLI a coated tip is dipped into the sample, and binding shifts an interference pattern.

Assay [2] concerns the target T1, CD123 (recombinant, soluble, analyte of …). As to the kind of experiment: BLI (Octet, ForteBio), antibody immobilized on streptavidin biosensors, CD123 in solution (row of 12.5 nM).
The target is the same in assay [3]. As to the kind of experiment: BLI (Octet, ForteBio), antibody immobilized on streptavidin biosensors, CD123 in solution (row of 25 nM).
Assay [4] shares this target. In words: BLI (Octet, ForteBio), antibody immobilized on streptavidin biosensors, CD123 in solution (row of 6.25 nM).

B1: 18B4D5 (antibody, V domains shown)
VH: EVKLQESGPGLVKPSQSLSLTCTVTGYSITSDYTWNWIRQFPGNKLEWMGYISFSGSTSYNPSLKSRLSITRDTSKNQFFLQLNSVTTEDTATYYCARGLDYWGQGTTLTVSS
VL: DIVMTQSPAIMSASLGERVTMTCTASSSISSSYLYWYQQKPGSSPKLWIYSTSNLASGVPARFSGSGSGTSYSLTISSMEAEDAATYYCHQLHRSPWTFGGGTKLEIKR
Consider B1, for which the dissociation constant Kd in assay [1], in assay [2], in assay [3] and in assay [4] was below 1 pM each time. The koff in assay [1], in assay [2], in assay [3] and in assay [4] was below 1e-07 s⁻¹ in each case. For the same molecule, the kon in assay [1], in assay [2], in assay [3] and in assay [4] was 122000 M⁻¹ s⁻¹ each time.
